Data reported in patent US20150133651, “CslA9 Gluco-mannan Synthase Gene” (published 2015).

Columns and labels:
MYB46 = MYB46 (Arabidopsis thaliana, UniProt Q9LXV2 SEQ:1-280); assay: EMSA; 10 mM Tris pH 7.5, 50 mM KCl, 5 mM MgCl2, poly(dI-dC); competed by 50x unlabeled probe; settings: tags: GST fusion, E. coli Rosetta gami; label: 32P
Method: (§1) DNA fragments for EMSA were obtained by PCR-amplification and labeled with [γ-³²P]ATP using T4 polynucleotide kinase (NEB). The end-labeled probes were purified with Microspin S-200 HR column (GE Healthcare). The labeled DNA fragments were incubated for 25 min with 50 ng of GST-MYB46, GST-MYB83, GST-bZIP1 and GSTANAC041 in a binding buffer [10 mM Tris (pH 7.5), 50 mM KCl, 1 mM DTT, 2.5% glycerol, 5 mM MgCl₂, 100 μg/ml BSA, and 50 ng/μL poly(dI-dC)]. Five percent polyacrylamide gel electrophoresis (PAGE) was used to separate the recombinant protein-bound DNA fragments from the unbound ones. The gel was dried and placed in a film cassette and exposed to X-ray film (Kodak) for overnight. Radioactive fragments were visualized by autoradiography.
To evaluate whether MYB46 could directly bind to the CSLA9 promoter sequence, electrophoretic mobility shift assays (EMSAs) were performed with the GST-MYB46 fusion protein as described in Example 1.

MYB83 (At3g08500) = MYB83 (At3g08500) (Arabidopsis thaliana, UniProt Q9C6U1 Q9C6U1:1-343); assay: EMSA; 10 mM Tris pH 7.5, 50 mM KCl, 5 mM MgCl2, poly(dI-dC); settings: tags: GST fusion, E. coli Rosetta gami; label: 32P
Method: as §1

Sequence of MYB46 (Q9LXV2 whole entry, the tested form may be a part): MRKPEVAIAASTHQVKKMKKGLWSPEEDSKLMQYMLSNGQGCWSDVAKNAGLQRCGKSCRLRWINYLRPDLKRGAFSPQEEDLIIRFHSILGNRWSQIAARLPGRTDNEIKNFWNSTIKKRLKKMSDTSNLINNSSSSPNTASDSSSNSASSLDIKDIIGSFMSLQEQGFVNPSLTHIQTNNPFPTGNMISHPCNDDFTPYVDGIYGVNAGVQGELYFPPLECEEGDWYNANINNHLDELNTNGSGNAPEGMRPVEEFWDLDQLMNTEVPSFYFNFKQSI
Sequence of MYB83 (At3g08500) (Q9C6U1 whole entry, the tested form may be a part, one chain of several): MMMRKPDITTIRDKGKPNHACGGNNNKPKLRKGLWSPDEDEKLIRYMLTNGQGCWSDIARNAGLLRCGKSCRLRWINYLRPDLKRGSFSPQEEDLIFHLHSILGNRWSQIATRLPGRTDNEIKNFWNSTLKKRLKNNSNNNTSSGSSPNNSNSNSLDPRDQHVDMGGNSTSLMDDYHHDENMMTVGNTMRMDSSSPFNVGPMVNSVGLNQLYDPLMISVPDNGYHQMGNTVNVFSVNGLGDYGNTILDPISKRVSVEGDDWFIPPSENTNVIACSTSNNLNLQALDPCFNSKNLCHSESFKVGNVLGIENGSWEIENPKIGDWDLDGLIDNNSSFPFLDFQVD

B1: CSLA9 promoter -705 to -556 (dsDNA)
DNA 1: CTTAAAATAACAATTTGTTTTGTATCTTCGCCTGGACGTCATTAATGTTTGTGTCGTTCAATAATGTTTGGTAGTTATATATAGAAAGAGCAAATTTATGGTTGATTGATGGTGCAAAAAAATTCATTTCTCTATATTCTAGAGAAATAA
DNA 2: TTATTTCTCTAGAATATAGAGAAATGAATTTTTTTGCACCATCAATCAACCATAAATTTGCTCTTTCTATATATAACTACCAAACATTATTGAACGACACAAACATTAATGACGTCCAGGCGAAGATACAAAACAAATTGTTATTTTAAG
B1: binds (MYB46); binds (MYB83 (At3g08500)).
